# B1: IL2.7 (rat IL2/EK/GP73-87/6his fusion protein) (protein)
# chain: APTSSPAKETQQHLEQLLLDLQVLLRGIDNYKNLKLPMMLTFKFYLPKQATELKHLQCLENELGALQRVLDLTQSKSFHLEDAGNFISNIRVTVVKLKGSENKFECQFDDEPATVVEFLRRWIAICQSIISTMTQGDDDDKGPQKSQRSQDENPVVHHHHHHH
# B2: IL4Ekdel (rat IL4/GP73-87/6his fusion protein) (protein)
# chain: CNDSPLREIINTLNQVTEKGTPCTEMFVPDVLTATRNTTENELICRASRVLRKFYFPRDVPPCLKNKSGVLGELRKLCRGVSGLNSLRSCTVNESTLTTLKDFLESLKSILRGKYLQSCTSMSPQKSQRSQDENPVVHHHHHHH
# B3: IL4.4 (rat IL4/EK/GP73-87/6his fusion protein) (protein)
# chain: CNDSPLREIINTLNQVTEKGTPCTEMFVPDVLTATRNTTENELICRASRVLRKFYFPRDVPPCLKNKSGVLGELRKLCRGVSGLNSLRSCTVNESTLTTLKDFLESLKSILRGKYLQSCTSMSGDDDDKGPQKSQRSQDENPVVHHHHHHH
# B4: IL2Ekdel (rat IL2/GP73-87/6his fusion protein) (protein)
# chain: APTSSPAKETQQHLEQLLLDLQVLLRGIDNYKNLKLPMMLTFKFYLPKQATELKHLQCLENELGALQRVLDLTQSKSFHLEDAGNFISNIRVTVVKLKGSENKFECQFDDEPATVVEFLRRWIAICQSIISTMTQPQKSQRSQDENPVVHHHHHHH
# Experiments:
# Assay in all cases: cell-based or functional assay
# [1] = target: rat MHC class II RT1B (I-A) glycoproteins (rat)
# [2] = target: rat IL-2 receptor on cells (rat)
# [3] = target: rat IL-4 receptor on cells (rat)
molecule,measurement,setting,value
OX6 anti-I-A (RT1B) IgG1 mAb (antibody),[3H]thymidine incorporation of RsL.11 T cells with 100 nM cytokine/NAg in the presence of OX6,[1],< 10000 cpm
same,[3H]thymidine incorporation of RsL.11 T cells with 100 fM-10 nM cytokine/NAg in the presence of OX6,[1],< 1000 cpm
same,"inhibition of the antigenic reactivity of IL4.4 (RsL.11 proliferation, irradiated splenic APC) (orders of magnitude)",[1],> 5
same,"inhibition of the response to GPMBP (RsL.11 proliferation, irradiated splenic APC)",[1],100 fold
B1,antigenic potency against GPMBP added with saturating IL-2 as a separate molecule,[2],100 fold
same,inhibition by soluble IL-2 of the RsL.11 proliferative response to IL2.7 (irradiated splenic APC),[2],10 fold
same,"potency against GPMBP in T cell-mediated cytotoxic assay (R1-trans T-APC, irradiated RsL.11), IL-2 added 24 hours after initiation of culture",[2],1000 times
same,"potency against GPMBP in T cell-mediated cytotoxic assay (R1-trans T-APC, irradiated RsL.11), IL-2 added at the initiation of culture",[2],32 fold
B2,"antigenic potency against GPMBP (RsL.11 proliferation, irradiated splenic APC)",[3],> 1000 times
same,potency against GPMBP in MHCII-dependent T cell-mediated killing assay (R1-trans T-APC),[3],1000 times
B3,antigenic potency against GPMBP added with saturating IL-4 as a separate molecule,[3],100 fold
same,"antigenic potency against GPMBP, by antigen concentrations eliciting a half maximal response (RsL.11 proliferation, irradiated splenic APC)",[3],> 100 fold
same,inhibition by soluble IL-4 of the RsL.11 proliferative response to IL4.4 (irradiated splenic APC),[3],10 fold
B4,lowest concentration fully active in MHCII-dependent T cell-mediated killing assay,[2],100 fM
same,potency against GPMBP or DHFR-NAg in MHCII-dependent T cell-mediated killing assay (R1-trans T-APC) (orders of magnitude),[2],> 5
